Biological target: Rpb2 subunit of Komagataella phaffii RNA polymerase II (TAP-tagged) (Komagataella phaffii, UniProt F2QTX9 1-1227)
Assay: cryo-EM structure

binding result: binds
B1: Komagataella phaffii Rai1 (E213A/D215A), kpRai1(2A) (enzyme)
chain: MSKEKILPLAARSKKAMLRQPKQVAYFSRDLNYKTHPDRSNLSYYYLPDGDIDNSIDLSVGSKHFLLGDSVELSKLDPILLALKEIEKESGAKTKDRIITWRGIMRKLLTLPYDSEEDFVLDVVSFDGQLFIQFNVPYLKSKDVQKQGDTEFHKKLQFSGYKFEKMATLPKPWPECTRKEIDSRAKSKCNNIEQYGAIVRTGISRIKILIGGAVACTADYYDENDPLSRYIELKTTRTINQYKDMIAFEKKLFRTWAQCFLLGIPKIIYGFRDDNCILRTVEEFSTNDIPLMVKNNPLNEQPKKENCYMSSINFYGAVVEWLNESVKDDQVWKLSYAKRNRQYLVLKEVTDENEKQQIVDSAIPAWFKEWRSELRNSEGNI

From publication PMC11381523 (Nature Communications, 2024)
